Article PMC10696396, “HilE represses the activity of the Salmonella virulence regulator HilD via a mechanism distinct from that of intestinal long-chain fatty acids” (The Journal of Biological Chemistry, 2023)

T1: EYFP-HilD (Salmonella enterica, UniProt P0CL08 1-309)
T1 construct: HilD of Salmonella enterica, UniProt P0CL08; eyfp was ligated (BamHI/EheI) into the SUMO-HilD expression vector that gives the full-length HilD; EYFP is the fluorescent label used for MST detection; also called EYFP-HilD fusion protein; source: E. coli C41(DE3), purified (Ni-NTA, SUMO protease cleavage, second Ni-NTA, SEC on Superdex 200); not shown: His6-SUMO, N-terminal, cleaved; EYFP, …
T1 sequence: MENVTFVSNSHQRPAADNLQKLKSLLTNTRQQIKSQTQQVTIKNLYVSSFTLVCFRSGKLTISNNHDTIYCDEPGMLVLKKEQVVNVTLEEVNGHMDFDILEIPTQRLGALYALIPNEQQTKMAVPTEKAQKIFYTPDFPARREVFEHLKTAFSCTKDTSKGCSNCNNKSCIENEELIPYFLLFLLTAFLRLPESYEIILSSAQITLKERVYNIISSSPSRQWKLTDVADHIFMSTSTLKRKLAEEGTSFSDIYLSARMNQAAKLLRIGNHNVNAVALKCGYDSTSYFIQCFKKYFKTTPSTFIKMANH


Experiments:
[1] = target: the molecule itself; experiment: SEC-MALS; Superdex 75 Increase 10/300 GL, 50 mM NaH2PO4 pH 7.0, 200 mM NaCl, 0.5 ml/min; protein concentrations of 100 μM (Fig. 4, D and E)
EYFP-HilD [2] = target: T1, EYFP-HilD; experiment: MST; homodimerization: unlabeled HilD titrated against EYFP-HilD preincubated with 1% DMSO; MST on-time 1.5 s, 25 °C; conditions: both partners purified
EYFP-HilD [3] = target: T1, EYFP-HilD; experiment: MST; homodimerization: unlabeled HilD (3.05 nM to 100 μM) titrated against 50 nM EYFP-HilD; 25 °C, 0.05% Pluronic F-127, protein storage buffers; dimer to monomers; conditions: both partners purified

Binder | stoichiometry N [1] | Kd (EYFP-HilD [2]) [µM] | Kd (EYFP-HilD [3]) [µM]
HilD NTD (residues 7-206) (domain or fragment, a His6 tag stands in place of the first six residues of HilD; No cleavage of the His6 tag is described (no protease site, purification goes from Ni-NTA to SEC); also called HilD_(7-206) (NTD); His6-tagged HilD NTD construct; source: E. coli C41(DE3), purified (Ni-NTA, SEC on Superdex 75); not shown: His6, N-terminal, kept) VSNSHQRPAADNLQKLKSLLTNTRQQIKSQTQQVTIKNLYVSSFTLVCFRSGKLTISNNHDTIYCDEPGMLVLKKEQVVNVTLEEVNGHMDFDILEIPTQRLGALYALIPNEQQTKMAVPTEKAQKIFYTPDFPARREVFEHLKTAFSCTKDTSKGCSNCNNKSCIENEELIPYFLLFLLTAFLRLPESYEIILSSAQIT | 2 |  | 
HilD (full-length, unfused) (natural protein, HilD, AraC/XylS transcription regulator of Salmonella enterica, UniProt P0CL08; Exclusively a homodimer alone by SEC-MALS; a single copy stands in the 1:1 complex with HilE; also called unlabeled HilD; unfused HilD; source: E. coli C41(DE3), purified (Ni-NTA, SUMO protease cleavage, second Ni-NTA, SEC); not shown: His6-SUMO, N-terminal, cleaved) MENVTFVSNSHQRPAADNLQKLKSLLTNTRQQIKSQTQQVTIKNLYVSSFTLVCFRSGKLTISNNHDTIYCDEPGMLVLKKEQVVNVTLEEVNGHMDFDILEIPTQRLGALYALIPNEQQTKMAVPTEKAQKIFYTPDFPARREVFEHLKTAFSCTKDTSKGCSNCNNKSCIENEELIPYFLLFLLTAFLRLPESYEIILSSAQITLKERVYNIISSSPSRQWKLTDVADHIFMSTSTLKRKLAEEGTSFSDIYLSARMNQAAKLLRIGNHNVNAVALKCGYDSTSYFIQCFKKYFKTTPSTFIKMANH | 2 | 4.33 ± 0.72 | 3.85 ± 0.63
